Laboratory results: PMC3929087

How the values were obtained:
[1] = cellular trafficking, method not given; details: glycan lost; control: wild type
[2] = secretion into CHO culture medium (unpublished data); details: glycan lost; control: wild type

B1: angiotensin I-converting enzyme (somatic ACE): N1162Q (protein)
parent chain: MGAASGRRGPGLLLPLPLLLLLPPQPALALDPGLQPGNFSADEAGAQLFAQSYNSSAEQVLFQSVAASWAHDTNITAENARRQEEAALLSQEFAEAWGQKAKELYEPIWQNFTDPQLRRIIGAVRTLGSANLPLAKRQQYNALLSNMSRIYSTAKVCLPNKTATCWSLDPDLTNILASSRSYAMLLFAWEGWHNAAGIPLKPLYEDFTALSNEAYKQDGFTDTGAYWRSWYNSPTFEDDLEHLYQQLEPLYLNLHAFVRRALHRRYGDRYINLRGPIPAHLLGDMWAQSWENIYDMVVPFPDKPNLDVTSTMLQQGWNATHMFRVAEEFFTSLELSPMPPEFWEGSMLEKPADGREVVCHASAWDFYNRKDFRIKQCTRVTMDQLSTVHHEMGHIQYYLQYKDLPVSLRRGANPGFHEAIGDVLALSVSTPEHLHKIGLLDRVTNDTESDINYLLKMALEKIAFLPFGYLVDQWRWGVFSGRTPPSRYNFDWWYLRTKYQGICPPVTRNETHFDAGAKFHVPNVTPYIRYFVSFVLQFQFHEALCKEAGYEGPLHQCDIYRSTKAGAKLRKVLQAGSSRPWQEVLKDMVGLDALDAQPLLKYFQPVTQWLQEQNQQNGEVLGWPEYQWHPPLPDNYPEGIDLVTDEAEASKFVEEYDRTSQVVWNEYAEANWNYNTNITTETSKILLQKNMQIANHTLKYGTQARKFDVNQLQNTTIKRIIKKVQDLERAALPAQELEEYNKILLDMETTYSVATVCHPNGSCLQLEPDLTNVMATSRKYEDLLWAWEGWRDKAGRAILQFYPKYVELINQAARLNGYVDAGDSWRSMYETPSLEQDLERLFQELQPLYLNLHAYVRRALHRHYGAQHINLEGPIPAHLLGNMWAQTWSNIYDLVVPFPSAPSMDTTEAMLKQGWTPRRMFKEADDFFTSLGLLPVPPEFWNKSMLEKPTDGREVVCHASAWDFYNGKDFRIKQCTTVNLEDLVVAHHEMGHIQYFMQYKDLPVALREGANPGFHEAIGDVLALSVSTPKHLHSLNLLSSEGGSDEHDINFLMKMALDKIAFIPFSYLVDQWRWRVFDGSITKENYNQEWWSLRLKYQGLCPPVPRTQGDFDPGAKFHIPSSVPYIRYFVSFIIQFQFHEALCQAAGHTGPLHKCDIYQSKEAGQRLATAMKLGFSRPWPEAMQLITGQPNMSASAMLSYFKPLLDWLRTENELHGEKLGWPQYNWTPNSARSEGPLPDSGRVSFLGLDLDAQQARVGQWLLLFLGIALLVATLGLSQRLFSIRHRSLHRHSHGPQFGSEVELRHS
For B1, the localisation_or_trafficking [1] was “no change” and the expression_or_secretion [2] was “no change”.
